Results taken from the supplement of paper PMC10567573.

B1: CDS2 (parent)
chain: LIVVTQSHLVIHNLFEGMIWFIVP
B2: ISL2 (parent)
chain: HYPFLGAMGDHSKKKPGTAMCVGC

Variants of: B1
Test: protein stability index of a GFP-peptide fusion (GPS, HEK-293T) (PSI 1-6); higher = more stable
Conditions: c terminus: a fixed tail appended
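Further: lentivirally expressed fusions sorted by FACS into six bins by GFP to DsRed ratio, PSI derived from sequencing read proportions per bin multiplied by bin number.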

First: L1H
Second: L1I
The protein stability index of the first is lower: 3.11 for the first, 3.5 for the second.

First: L1A
Second: L1D
The protein stability index of the first is lower: 3.25 for the first, 3.86 for the second.

First: L1F
Second: L1M
The protein stability index of the first is higher: 3.17 for the first, 3.16 for the second.

Variants of: B2
Test: as above
Conditions: c terminus: a fixed tail appended

Going from G17Y to G17R, the protein stability index falls from 2.58 to 2.23.

Going from G17P to G17E, the protein stability index rises from 2.75 to 3.44.

Compared with G17D, G17S is lower in protein stability index: 3.35 for the first, 2.75 for the second.

First: G17T
Second: G17L
The protein stability index of the first is higher: 2.8 for the first, 2.1 for the second.

Compared with G17I, G17M is higher in protein stability index: 1.98 for the first, 2.43 for the second.

Compared with G17Q, G17A is lower in protein stability index: 3.46 for the first, 2.86 for the second.

Going from G17N to G17C, the protein stability index rises from 3.01 to 3.97.

First: G17H
Second: G17V
The protein stability index of the first is higher: 3.18 for the first, 2.26 for the second.

First: G17K
Second: G17F
The protein stability index of the first is higher: 3.11 for the first, 2.46 for the second.

Compared with G17W, P16Y is higher in protein stability index: 1.63 for the first, 2.42 for the second.

First: P16M
Second: P16Q
The protein stability index of the first is higher: 2.45 for the first, 2.44 for the second.

First: P16W
Second: P16T
The protein stability index of the first is higher: 2.41 for the first, 2.37 for the second.

Going from P16V to P16N, the protein stability index rises from 2.06 to 2.7.

Going from P16S to P16R, the protein stability index falls from 2.69 to 1.99.

Going from C24S to C24N, the protein stability index rises from 3.46 to 3.64.

First: C24D
Second: C24Q
The protein stability index of the first is higher: 4.13 for the first, 4.02 for the second.

Going from C24V to C24Y, the protein stability index falls from 3.24 to 2.75.

Going from C24W to C24I, the protein stability index rises from 1.68 to 2.8.

Going from C24H to C24T, the protein stability index falls from 3.42 to 2.83.

Compared with C24A, C24P is higher in protein stability index: 3.09 for the first, 3.82 for the second.

First: C24G
Second: C24L
The protein stability index of the first is higher: 3.17 for the first, 2.48 for the second.

Compared with C24R, C24K is higher in protein stability index: 3.52 for the first, 4.12 for the second.

Compared with C24F, C24E is higher in protein stability index: 2.23 for the first, 4.5 for the second.

First: C24M
Second: M20W
The protein stability index of the first is higher: 2.52 for the first, 2.04 for the second.

Going from M20N to M20E, the protein stability index rises from 3.16 to 3.62.

Going from M20C to M20D, the protein stability index rises from 3.18 to 3.61.

Going from M20H to M20V, the protein stability index falls from 2.85 to 2.62.

Compared with M20P, M20T is higher in protein stability index: 3.03 for the first, 3.16 for the second.

Compared with M20L, M20F is lower in protein stability index: 2.44 for the first, 1.87 for the second.

Compared with M20G, M20Y is lower in protein stability index: 3.03 for the first, 1.99 for the second.

Compared with M20K, M20I is lower in protein stability index: 3.7 for the first, 2.29 for the second.

First: M20Q
Second: M20A
The protein stability index of the first is lower: 3.09 for the first, 3.27 for the second.

Going from M20S to M20R, the protein stability index falls from 3.55 to 3.25.

First: V22F
Second: V22D
The protein stability index of the first is lower: 2.16 for the first, 3.43 for the second.

First: V22A
Second: V22E
The protein stability index of the first is lower: 3.04 for the first, 3.46 for the second.

Going from V22Q to V22T, the protein stability index falls from 3.44 to 3.42.

First: V22G
Second: V22N
The protein stability index of the first is lower: 3.59 for the first, 3.61 for the second.

Going from V22S to V22H, the protein stability index falls from 3.6 to 3.01.

Compared with V22R, V22M is lower in protein stability index: 3.57 for the first, 2.52 for the second.

Going from V22I to V22Y, the protein stability index rises from 2.08 to 2.34.

Compared with V22W, V22P is higher in protein stability index: 1.35 for the first, 3.05 for the second.

First: V22C
Second: V22L
The protein stability index of the first is higher: 3.39 for the first, 2.42 for the second.

First: V22K
Second: A19K
The protein stability index of the first is higher: 3.18 for the first, 2.8 for the second.

First: A19E
Second: A19M
The protein stability index of the first is higher: 3.29 for the first, 2.28 for the second.

Going from A19Q to A19S, the protein stability index rises from 2.91 to 3.72.

Compared with A19Y, A19L is higher in protein stability index: 2.12 for the first, 2.56 for the second.

First: A19H
Second: A19G
The protein stability index of the first is higher: 3.2 for the first, 2.32 for the second.

Compared with A19V, A19C is higher in protein stability index: 2.37 for the first, 4.28 for the second.

First: A19N
Second: A19T
The protein stability index of the first is lower: 2.44 for the first, 2.76 for the second.

Going from A19W to A19F, the protein stability index rises from 1.3 to 1.63.

Compared with A19D, A19I is lower in protein stability index: 3.66 for the first, 2.16 for the second.

First: A19R
Second: A19P
The protein stability index of the first is lower: 2.06 for the first, 2.86 for the second.

Going from C21F to C21K, the protein stability index rises from 2.71 to 3.81.

Going from C21H to C21P, the protein stability index rises from 3.04 to 3.59.

Going from C21L to C21W, the protein stability index falls from 3.31 to 1.91.

Compared with C21D, C21R is lower in protein stability index: 2.96 for the first, 2.79 for the second.

Compared with C21T, C21M is lower in protein stability index: 3.71 for the first, 2.28 for the second.

Compared with C21E, C21N is lower in protein stability index: 3.39 for the first, 3.29 for the second.

Going from C21A to C21G, the protein stability index rises from 2.94 to 3.12.

Going from C21I to C21V, the protein stability index rises from 2.69 to 2.72.

Compared with C21Q, C21Y is lower in protein stability index: 3.43 for the first, 2.97 for the second.

Compared with C21S, G23Y is lower in protein stability index: 3.37 for the first, 1.69 for the second.

Going from G23I to G23P, the protein stability index rises from 2.16 to 3.31.

First: G23C
Second: G23L
The protein stability index of the first is higher: 3.18 for the first, 1.8 for the second.

Compared with G23K, G23N is lower in protein stability index: 3.18 for the first, 2.72 for the second.

Going from G23S to G23A, the protein stability index falls from 2.76 to 2.42.

Compared with G23H, G23V is lower in protein stability index: 2.52 for the first, 2.28 for the second.

Compared with G23E, G23D is higher in protein stability index: 3.25 for the first, 3.32 for the second.

Compared with G23R, G23T is higher in protein stability index: 2.43 for the first, 2.96 for the second.

Compared with G23M, G23Q is higher in protein stability index: 1.58 for the first, 2.57 for the second.

Going from G23F to G23W, the protein stability index falls from 2.44 to 1.85.

Compared with T18D, T18H is lower in protein stability index: 3.4 for the first, 2.59 for the second.

Going from T18E to T18Q, the protein stability index falls from 2.94 to 2.67.

First: T18C
Second: T18G
The protein stability index of the first is higher: 3.02 for the first, 2.5 for the second.

Compared with T18A, T18S is higher in protein stability index: 2.62 for the first, 2.76 for the second.

Going from T18P to T18V, the protein stability index falls from 2.65 to 2.25.

T18F and T18L are the same in protein stability index: 2 for the first, 2 for the second.

Going from T18W to T18K, the protein stability index rises from 1.47 to 2.71.

Going from T18N to T18R, the protein stability index falls from 2.71 to 1.81.

Going from T18M to T18I, the protein stability index falls from 2.67 to 2.

With T18Y the protein stability index was 2.15.
